Experimental data: publication doi:10.1101/2025.05.23.655777v1

B1: Ala-AT; alanine aminotransferase 1 (recombinant) (Arabidopsis thaliana) (protein)
chain: SASDSSSSLPVTLDTINPKVIKCEYAVRGEIVNIAQKLQEDLKTNKDAYPFDEIIYCNIGNPQSLGQQPITFFREVLALCSYTALLDESATHGLFSSDSIERAWKILDQIPGRATGAYSHSQGIKGLRDAIADGIEARDGFPADPNDIFMTDGASPGVHMMMQLLITSEKDGILCPIPQYPLYSASIALHGGTLVPYYLDEASGWGLEISELKKQLEDARSKGITVRALAVINPGNPTGQVLSEENQRDVVKFCKQEGLVLLADEVYQENVYVPDKKFHSFKKVARSMGYGEKDLALVSFQSVSKGYYGECGKRGGYMEVTGFTSDVREQIYKMASVNLCSNISGQILASLIMSPPKPGDDSYESYIAEKDGILSSLARRAKTLEEALNKLEGVTCNRAEGAMYLFPCLHLPQKAIAAAEAEKTAPDNFYCKRLLKATGIVVVPGSGFRQVPGTWHFRCTILPQEDKIPAIVDRLTAFHQSFMDEFRD
B2: Asp-AT; aspartate aminotransferase 1 (recombinant) (Arabidopsis thaliana) (protein)
chain: MSSWWKSVEPAPKDPILGVTEAFLADPSPEKVNVGVGAYRDDNGKPVVLECVREAEKRLAGSTFMEYLPMGGSAKMVDLTLKLAYGDNSEFIKDKRIAAVQTLSGTGACRLFADFQKRFSPGSQIYIPVPTWSNHHNIWKDAQVPQKTYHYYHPETKGLDFSALMDDVKNAPEGSFFLLHACAHNPTGVDPTEEQWREISQLFKAKKHFAFFDMAYQGFASGDPARDAKSIRIFLEDGHHIGISQSYAKNMGLYGQRVGCLSVLCEDPKQAVAVKSQLQQLARPMYSNPPLHGAQLVSTILEDPELKSLWLKEVKVMADRIIGMRTTLRESLEKLGSPLSWEHVTKQIGMFCYSGLTPEQVDRLTSEYHIYMTRNGRISMAGVTTGNVGYLANAIHEVTKSS

Assays:
Test in all cases: purified protein
purified protein [1] = substrate: C[C@H](N)C(=O)O; conditions: fixed 2-oxoglutarate (6 mM), HEPES pH 8.0, 50 µM PLP, 30 °C
purified protein [2] = substrate: O=C(O)CCC(=O)C(=O)O; conditions: HEPES pH 8.0, 50 µM PLP, 30 °C
purified protein [3] = substrate: N[C@@H](CS)C(=O)O; conditions: fixed 2-oxoglutarate (6 mM), HEPES pH 8.0, 50 µM PLP, 30 °C
purified protein [4] = substrate: N[C@@H](CC(=O)O)C(=O)O; conditions: fixed 2-oxoglutarate (6 mM), HEPES pH 8.0, 50 µM PLP, 30 °C

Protein	Km (purified protein [1]) [µM]	kcat (purified protein [1]) [s⁻¹]	Km (purified protein [2]; fixed alanine (9 mM)) [µM]	kcat (purified protein [2]; fixed alanine (9 mM)) [s⁻¹]	Km (purified protein [3]) [µM]	kcat (purified protein [3]) [s⁻¹]	Km (purified protein [4]) [µM]	kcat (purified protein [4]) [s⁻¹]	Km (purified protein [2]; fixed aspartate (12 mM)) [µM]	kcat (purified protein [2]; fixed aspartate (12 mM)) [s⁻¹]
B1	2510 ± 180	367.69	180 ± 10	262.91	770 ± 100	0.14				
B2					15140 ± 640	0.81	3330 ± 60	232.26	460 ± 20	180.60
